Patent publication US20200165340A1 (XIANGTAN TENGHUA BIOSCIENCE, published 2020)

Target: T1, human PD-L1 expressed at the cell membrane (human, UniProt Q9NZQ7 19-290)
T1 construct: whole, on cells; also called programmed death-ligand 1; cellular PD-L1 protein
Assay: flow cytometry (FACS) titration on 293T cells stably transfected with human PD-L1, anti-mouse IgG PE detection

T1 sequence (Q9NZQ7 19-290): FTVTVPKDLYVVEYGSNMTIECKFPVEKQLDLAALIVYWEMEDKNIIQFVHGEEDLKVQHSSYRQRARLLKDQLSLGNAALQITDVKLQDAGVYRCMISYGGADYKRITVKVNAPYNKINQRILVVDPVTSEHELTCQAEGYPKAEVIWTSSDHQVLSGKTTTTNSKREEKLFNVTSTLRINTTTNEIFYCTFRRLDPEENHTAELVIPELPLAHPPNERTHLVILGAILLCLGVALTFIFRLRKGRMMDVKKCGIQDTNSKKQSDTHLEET

B1: anti-PD-L1 mouse monoclonal antibody Q106 (antibody, V domains shown)
VH: DVQLQESGPGLVKPSQSLSLTCSVTGYSITSDYAWNWIRQFPGDTLEWMGYINYSGSSTYNPSLISRLSITRDTSKNQFFLQLNSVTSEDTATYYCARGPDWDWYFDYWGQGTTLTVSS
VL: DIVLTQSPATLSVTPGDSVSLSCRASQSISNNLHWYQQKSHESPRLLIKYASQSISGIPSRFSGSGSGTDFTLSINGVETEDFGMYFCQQTNSWPTFGGGTKLEIK
notes: also called PD-L1 antibody Q106
EC50: 0.3 nM
